Experimental data taken from patent US20220064322A1 (JACOBIO PHARMACEUTICALS, published 2022).
Substitutions are numbered along the chain they refer to.

T1: human CD73 ecto-domain recombinant protein (huCD73) (human, UniProt P21589 27-547)
T1 sequence: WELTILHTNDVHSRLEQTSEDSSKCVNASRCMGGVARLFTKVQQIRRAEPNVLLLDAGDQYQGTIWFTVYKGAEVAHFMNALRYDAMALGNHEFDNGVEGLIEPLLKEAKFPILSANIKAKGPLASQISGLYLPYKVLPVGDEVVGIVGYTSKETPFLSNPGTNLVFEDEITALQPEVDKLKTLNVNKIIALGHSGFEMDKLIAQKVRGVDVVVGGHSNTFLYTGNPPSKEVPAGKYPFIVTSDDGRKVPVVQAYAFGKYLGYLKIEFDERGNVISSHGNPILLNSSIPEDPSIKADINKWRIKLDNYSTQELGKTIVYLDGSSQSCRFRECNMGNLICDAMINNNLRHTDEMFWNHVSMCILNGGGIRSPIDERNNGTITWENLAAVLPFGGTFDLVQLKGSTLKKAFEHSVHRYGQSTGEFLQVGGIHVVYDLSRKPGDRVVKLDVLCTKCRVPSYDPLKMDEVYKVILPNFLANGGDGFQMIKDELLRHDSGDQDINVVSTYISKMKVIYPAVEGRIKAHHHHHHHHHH

T2: cynomolgus CD73 on the cell surface (293T/17-cynoCD73 cells) (cynomolgus (Macaca fascicularis), UniProt P21589 27-547 (human entry))
T2 chain: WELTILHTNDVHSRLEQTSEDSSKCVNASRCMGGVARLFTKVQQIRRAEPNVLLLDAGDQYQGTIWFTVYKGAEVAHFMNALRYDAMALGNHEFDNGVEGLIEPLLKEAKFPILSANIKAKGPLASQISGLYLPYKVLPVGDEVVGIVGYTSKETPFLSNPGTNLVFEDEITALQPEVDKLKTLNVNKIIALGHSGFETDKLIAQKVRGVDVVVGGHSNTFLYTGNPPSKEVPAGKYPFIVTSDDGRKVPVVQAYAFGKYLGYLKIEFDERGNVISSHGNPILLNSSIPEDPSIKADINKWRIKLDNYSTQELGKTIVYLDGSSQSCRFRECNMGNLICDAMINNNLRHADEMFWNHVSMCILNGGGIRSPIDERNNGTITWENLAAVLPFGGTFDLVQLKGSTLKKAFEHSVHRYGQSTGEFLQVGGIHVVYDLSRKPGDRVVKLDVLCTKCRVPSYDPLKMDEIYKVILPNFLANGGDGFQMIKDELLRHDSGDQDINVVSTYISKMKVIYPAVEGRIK

B1: 66F2A8D6 (antibody, mouse IgG1, kappa)
heavy: QVHLQQSGAELAKPGASVNLSCKASGYAFTSYWMHWVKQRPGQGLEWIGYINPSSGLAKYNQKFKDKATLTTDKSSNTAYMQLSSLTYDDSAVYYCGRWLLSAWFAYWGQGTLVTVSAAKTTPPSVYPLAPGSAAQTNSMVTLGCLVKGYFPEPVTVTWNSGSLSSGVHTFPAVLQSDLYTLSSSVTVPSSTWPSETVTCNVAHPASSTKVDKKIVPRDCGCKPCICTVPEVSSVFIFPPKPKDVLTITLTPKVTCVVVDISKDDPEVQFSWFVDDVEVHTAQTQPREEQFNSTFRSVSELPIMHQDWLNGKEFKCRVNSAAFPAPIEKTISKTKGRPKAPQVYTIPPPKEQMAKDKVSLTCMITDFFPEDITVEWQWNGQPAENYKNTQPIMDTDGSYFVYSKLNVQKSNWEAGNTFTCSVLHEGLHNHHTEKSLSHSPGK
light: DIKMTQSPSSIYASLGERVTITCKASQGINTYLSWFQQKPGKSPKTLIYRANILVDGVPSRFSGSGSGQDYSLTINSLEYEDMGIYYCLQYDEFPYTFGGGTKLEIKRADAAPTVSIFPPSSEQLTSGGASVVCFLNNFYPKDINVKWKIDGSERQNGVLNSWTDQDSKDSTYSMSSTLTLTKDEYERHNSYTCEATHKTSTSPIVKSFNRNEC
notes: Hybridoma antibody, mouse IgG1 / mouse kappa full chains
B2: 94H1L3 hIgG2 (antibody)
heavy: QVQLVQSGAEVKKPGASVKVSCKASGYTFTSYWMHWVRQAPGQGLEWMGYINPSSGYTKSNQKFKDRVTMTADTSTSTAYMELSSLRSEDTAVYYCGRWLLSAWFAYWGQGTLVTVSSASTKGPSVFPLAPCSRSTSESTAALGCLVKDYFPEPVTVSWNSGALTSGVHTFPAVLQSSGLYSLSSVVTVPSSNFGTQTYTCNVDHKPSNTKVDKTVERKCCVECPPCPAPPVAGPSVFLFPPKPKDTLMISRTPEVTCVVVDVSHEDPEVQFNWYVDGVEVHNAKTKPREEQFNSTFRVVSVLTVVHQDWLNGKEYKCKVSNKGLPAPIEKTISKTKGQPREPQVYTLPPSREEMTKNQVSLTCLVKGFYPSDIAVEWESNGQPENNYKTTPPMLDSDGSFFLYSKLTVDKSRWQQGNVFSCSVMHEALHNHYTQKSLSLSPGK
light: DIQMTQSPSSLSASVGDRVTITCKASQDINTYLSWFQQKPGKSPKSLIYRSNILVDGVPSRFSGSGSGQDYTLTISSLQPEDFAIYYCLQYDDFPYTFGQGTKLEIKRTVAAPSVFIFPPSDEQLKSGTASVVCLLNNFYPREAKVQWKVDNALQSGNSQESVTEQDSKDSTYSLSSTLTLSKADYEKHKVYACEVTHQGLSSPVTKSFNRGEC
B3: JB24H3L2 (antibody, human IgG1, kappa, V domains shown)
VH: QVQLVQSGAEVKKPGASVKMSCKASGYTFTDYNMHWVKQSHGKSLEWIGYIKPHNAGTTYNPKFEGRATLTVDTSASTAYMELRSLRSEDTAVYYCVRSDFLYWYFDVWGQGTTVTVSS
VL: DIQMTQSPSSLSASVGDRVTITCTASSSVSSSYLHWYQQKPGSAPKLWIYSTSNLASGVPSRFSGSGSGTDYTLTISSLQPEDFATYYCHQYHRSPLTFGAGTKLEIKR
notes: Humanized antibody of JB24Chi, human IgG1 / kappa
B4: JB24H3L3 (antibody, human IgG1, kappa, V domains shown)
VH: B3 VH
VL: B3 VL with Q3V, A44S, S61G
notes: as for B3
B5: JB94H2L1 (antibody, human IgG1, kappa, V domains shown)
VH: QVQLVQSGAEVKKPGASVKVSCKASGYTFTSYWMHWVRQRPGQGLEWMGYINPSSGYTKSNQKFKDRVTLTADTSTSTAYMELSSLRSEDTAVYYCGRWLLSAWFAYWGQGTLVTVSS
VL: DIQMTQSPSSLSASVGDRVTITCKASQDINTYLSWFQQKPGKAPKSLIYRSNILVDGVPSRFSGSGSGQDFTLTISSLQPEDFAIYYCLQYDDFPYTFGQGTKLEIKR
notes: Humanized antibody of the 94 clone, human IgG1 / kappa
B6: JB94H3L3 (antibody, human IgG1, kappa, V domains shown)
VH: B5 VH with V5Q, V20L, M48I, V68A
VL: B5 VL with A43S, F71Y
notes: as for B5
B7: JB94Chi (antibody, human IgG1, kappa)
heavy: not shown
light: DIRMTQSPSSMYASLGERVTITCKASQDINTYLSWFQQKPGKSPKSLIYRSNILVDGVPSRFSGSGSGQDYSLTISSLEYEDMGIYYCLQYDDFPYTFGGGTKLEIKRTVAAPSVFIFPPSDEQLKSGTASVVCLLNNFYPREAKVQWKVDNALQSGNSQESVTEQDSKDSTYSLSSTLTLSKADYEKHKVYACEVTHQGLSSPVTKSFNRGEC
notes: Chimeric antibody: mouse Fv of 94A12G11F with human IgG1 and human kappa constant regions

These binders were tested against T1, human CD73 ecto-domain recombinant … (assay: cell-based or functional assay).
In the case of B1, the “Bottom (lower plateau of the fitted curve), blockade of soluble huCD73 enzyme activity (AMP hydrolysis, luciferase/CellTiter-Glo)” value is reported as 6.36, the “IC50, blockade of soluble huCD73 enzyme activity (AMP hydrolysis, luciferase/CellTiter-Glo)” value is reported as 1.96 nM and the “Top (upper plateau of the fitted curve), blockade of soluble huCD73 enzyme activity (AMP hydrolysis, luciferase/CellTiter-Glo)” value is reported as 86.1.

Target: T2, cynomolgus CD73 on the cell surface …
Experiment: cell-based or functional assay
With B1 the “IC50, blockade of 5'exonuclease activity on 293T/17-Cyno CD73 cells” value (“IC50, blockade of 5'exonuclease activity” for short) was 0.077 nM.

Target: T2, cynomolgus CD73 on the cell surface …
Experiment: cell-based or functional assay
Remark: another data set of the same source
In the case of B2, the “IC50, blockade of 5'exonuclease activity” value is reported as 0.021 nM.
B3 was tested, and the “IC50, blockade of 5'exonuclease activity” value was 0.004 nM.
In the case of B4, the “IC50, blockade of 5'exonuclease activity” value is reported as 0.003 nM.
B5 was tested, and the “IC50, blockade of 5'exonuclease activity” value was 0.0001 nM.
In the case of B6, the “IC50, blockade of 5'exonuclease activity” value is reported as 0.002 nM.
With B7 the “IC50, blockade of 5'exonuclease activity” value was 0.001 nM.

The binders below were run against T1, human CD73 ecto-domain recombinant … (assay: indirect ELISA, coated soluble huCD73).
Experimental: (§1) The indirect ELISA method was applied to evaluate the binding ability of each positive clone to soluble huCD73 protein. Soluble huCD73 was coated, and gradient diluted samples were incubated, then HPR-labeled secondary antibody was added, finally TMB was added to develop the color, and OD450 was read after termination.
(§2) 1 ug/ml of recombinant CD73 protein was coated on ELISA plates (Coning), incubate overnight at 4° C. The next day, wash 5 times in PBS and blocked with 200 ul/well 2% skimmed milk, a certain dose range of CD73 antibodies were incubated for 1 h at room temperature. Wash 5 times with PBST washing buffer (PBS, 0.05% Tween 20), add HRP-conjugated goat anti-mouse IgG (H+L) (Promega) and incubate at room temperature for 1 h to detect bound anti-CD73 antibodies; wash the plate 5 times again and add TMB (Life Technologies) for color development for 5 to 10 min; finally the reaction was stopped by adding 1N HCl, and the OD value was measured at 450 nm. GraphPad Prism software was used to generate data graphs and statistical affinity data.
Work on B1 yielded an EC50 of 0.153 nM.

Target: T2, cynomolgus CD73 on the cell surface …
Experiment: flow cytometry on 293T/17-Cyno CD73 cells
Experimental: (§3) 2×10⁶ cells resuspended in PBS buffer were distributed into 96-well plates and incubated with gradient diluted humanized antibodies for 1 h at refrigerator 4° C. or on ice, then the cells was centrifuged for 3 min 1500 rpm at 4° C. and washed three times by PBS, and diluted APC-labeled goat anti-human polyclonal antibody (Biolegend) were incubated for 30 min at refrigerator 4° C. Finally, the cells were washed three times with PBS as described above and analyzed on MACSQuant flow cytometer. GraphPad Prism software was used to generate data graphs and statistical affinity data.
(§4) The samples to be tested were incubated for 1 h at 4° C. after gradient dilution. After washing, 100 μL of APC-labeled secondary antibody was added to each well and incubated for 30 min. After washing, detecting on machine and the fluorescence value was read. GraphPad Prism software was used to generate data graphs and statistical affinity data.
For B3, the EC50 was 3.59 nM.
Work on B4 yielded an EC50 of 3.73 nM.
With B5 the EC50 was 7.97 nM.
B6 gave an EC50 of 9.82 nM.
B7 gave an EC50 of 8.59 nM.

Each binder was assayed against T1, human CD73 ecto-domain recombinant … (assay: indirect ELISA, coated soluble huCD73, curve fit).
Experimental: as §1, §2
With B1 the Bottom was 0.165 OD450 and the Top was 3.11 OD450.

What follows are binders tested against T1, human CD73 ecto-domain recombinant … (assay: indirect ELISA, coated huCD73 recombinant protein).
Experimental: (§5) Incubated with gradient diluted 100 μL/well of antibodies for 1 h at room temperature. After the plates were washed 3 times with 200 ul/well of PBST, 100 ul of diluted HRP-labeled secondary antibody at a ratio of 1:5000 was added to each well, and the plates were incubated for 1 hour at room temperature. The plates were washed 3 times with 200 ul/well of PBST, 100 ul of TMB was added to each well and reacted for 5 minutes at room temperature in the dark. […] read the OD value. The affinity of humanized antibodies and parent antibodies were similar to the antigen (table 9).
For B3, the EC50 was 0.0208 nM.
B4 was tested, and the EC50 was 0.0228 nM.
B5 showed an EC50 of 0.0252 nM.
B6 showed an EC50 of 0.0292 nM.
B7 was tested, and the EC50 was 0.0357 nM.

Target: T2, cynomolgus CD73 on the cell surface …
Experiment: flow cytometry on 293T/17-Cyno CD73 cells, curve fit
Experimental: as §3, §4
Work on B3 yielded a Bottom of 0.509 fluorescence and a Top of 48.7 fluorescence.
B4 was tested, and the Bottom was 0.917 fluorescence and the Top was 34 fluorescence.
Work on B5 yielded a Bottom of 0.22 fluorescence and a Top of 82 fluorescence.
With B6 the Bottom was 1.4 fluorescence and the Top was 125 fluorescence.
B7 showed a Bottom of 1.45 fluorescence and a Top of 124 fluorescence.

The binders below were run against T1, human CD73 ecto-domain recombinant … (assay: indirect ELISA, coated huCD73 recombinant protein, curve fit).
Experimental: as §5
B3 gave a Bottom of 89.1 OD value and a Top of 7140 OD value.
B4 gave a Bottom of 9.8 OD value and a Top of 7310 OD value.
B5 was tested, and the Bottom was -142 OD value and the Top was 7110 OD value.
With B6 the Bottom was 320 OD value and the Top was 8900 OD value.
B7 gave a Bottom of 152 OD value and a Top of 8470 OD value.

Each binder was assayed against T1, human CD73 ecto-domain recombinant … (assay: indirect ELISA, coated soluble huCD73, HRP-labelled secondary antibody, OD450).
Experimental: as §1, §2
B1 was tested, and the “EC50 (read off the curve)” value was ~0.2 nM.

These binders were tested against T1, human CD73 ecto-domain recombinant … (assay: indirect ELISA, plate coated with 1 ug/ml huCD73 recombinant protein, HRP-labelled secondary antibody, RFU).
Experimental: as §5
In the case of B3, the “EC50 (read off the curve)” value is reported as ~0.2 µg/mL.
In the case of B4, the “EC50 (read off the curve)” value is reported as ~0.2 µg/mL.
In the case of B5, the “EC50 (read off the curve)” value is reported as ~0.02 µg/mL.
With B6 the “EC50 (read off the curve)” value was ~0.03 µg/mL.
For B7, the “EC50 (read off the curve)” value was ~0.03 µg/mL.
